Laboratory results from patent US20090324614A1 (published 2009).

T1: soluble rat FcRn (rat, UniProt P13599 23-298; P07151 21-119, limits assumed)
T1 construct: also called sol rat FcRn
T1 sequence: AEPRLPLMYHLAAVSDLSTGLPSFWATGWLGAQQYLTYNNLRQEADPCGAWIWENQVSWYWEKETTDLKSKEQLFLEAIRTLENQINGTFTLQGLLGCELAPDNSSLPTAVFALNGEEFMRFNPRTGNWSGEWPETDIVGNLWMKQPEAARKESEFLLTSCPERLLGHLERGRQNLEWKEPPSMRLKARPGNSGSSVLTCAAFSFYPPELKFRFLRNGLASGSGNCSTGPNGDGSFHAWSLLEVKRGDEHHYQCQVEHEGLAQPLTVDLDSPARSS
T1 sequence (b2m): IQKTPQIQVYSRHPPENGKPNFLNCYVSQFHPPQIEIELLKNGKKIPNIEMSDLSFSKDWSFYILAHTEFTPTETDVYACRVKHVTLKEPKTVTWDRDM

T2: rat FcRn/rat β2M expressed on cells (rat, UniProt P13599 23-366; P07151 21-119)
T2 construct: Cells from Neil Simister (Brandeis); also called rat FcRn (cells); rat fibroblasts expressing rat FcRn
T2 sequence: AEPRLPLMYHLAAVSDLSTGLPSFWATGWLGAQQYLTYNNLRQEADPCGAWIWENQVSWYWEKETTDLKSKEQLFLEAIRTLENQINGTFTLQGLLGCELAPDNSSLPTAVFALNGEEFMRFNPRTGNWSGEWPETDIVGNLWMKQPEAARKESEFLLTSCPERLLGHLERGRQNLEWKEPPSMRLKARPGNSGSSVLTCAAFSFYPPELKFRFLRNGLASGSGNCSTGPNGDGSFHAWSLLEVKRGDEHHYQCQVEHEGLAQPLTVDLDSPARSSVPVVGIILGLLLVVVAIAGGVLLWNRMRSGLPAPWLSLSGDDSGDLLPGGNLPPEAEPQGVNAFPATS
T2 sequence (b2m): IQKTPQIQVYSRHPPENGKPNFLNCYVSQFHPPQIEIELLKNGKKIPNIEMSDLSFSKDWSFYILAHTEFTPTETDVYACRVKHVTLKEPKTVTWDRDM


How the values were obtained:
[1] = target: T3, soluble human FcRn (shFcRn) (human, UniProt P55899 24-297; P61769 21-119); assay: SPR 8500, hFcRn pH 7.4 (Table 12C)
T3 construct: also called soluble hFcRn; sol hFcRn
T3 sequence (P55899 24-297 limits assumed, chain 1 of 2): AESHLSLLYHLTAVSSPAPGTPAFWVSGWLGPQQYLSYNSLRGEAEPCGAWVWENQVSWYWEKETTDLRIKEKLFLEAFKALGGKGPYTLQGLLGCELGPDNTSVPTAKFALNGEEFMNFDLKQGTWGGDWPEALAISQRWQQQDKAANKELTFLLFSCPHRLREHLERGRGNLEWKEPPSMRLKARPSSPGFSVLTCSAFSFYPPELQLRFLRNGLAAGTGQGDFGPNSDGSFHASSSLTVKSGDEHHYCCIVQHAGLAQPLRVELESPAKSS
T3 sequence (P61769 21-119 limits assumed, chain 2 of 2): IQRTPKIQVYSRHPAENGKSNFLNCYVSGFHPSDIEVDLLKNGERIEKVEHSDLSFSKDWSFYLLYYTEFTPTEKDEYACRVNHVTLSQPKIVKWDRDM

[2] = target: T3, soluble human FcRn (shFcRn); assay: SPR 8500, hFcRn pH 6 (Table 12B)
[3] = target: T4, human FcRn/human β2M expressed by cells (293 C11 cells) (human, UniProt P55899 24-365; P61769 21-119); assay: FACS blocking of IgG-Fc, IgG, pH 6
T4 construct: HEK 293 cells engineered to overexpress FcRn; Whole entries named; also called hFcRn (cells); hFcRn in THP-1 and Caco-2 cells
T4 sequence (P55899 24-365 limits assumed, chain 1 of 2): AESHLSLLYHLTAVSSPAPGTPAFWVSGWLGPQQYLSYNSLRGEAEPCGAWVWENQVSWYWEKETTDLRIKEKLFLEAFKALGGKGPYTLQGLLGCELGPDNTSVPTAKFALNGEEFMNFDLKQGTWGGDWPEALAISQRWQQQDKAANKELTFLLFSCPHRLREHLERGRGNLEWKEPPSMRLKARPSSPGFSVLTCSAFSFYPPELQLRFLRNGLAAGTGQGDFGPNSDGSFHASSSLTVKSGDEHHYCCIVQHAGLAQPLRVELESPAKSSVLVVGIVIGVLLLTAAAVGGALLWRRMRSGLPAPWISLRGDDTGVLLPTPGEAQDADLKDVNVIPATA
T4 sequence (P61769 21-119 limits assumed, chain 2 of 2): as the sequence (P61769 21-119 limits assumed, chain 2 of 2) above

soluble rat FcRn [4] = target: T1, soluble rat FcRn; assay: SPR 8500, rat FcRn pH 6 (Table 11D)
[5] = target: T3, soluble human FcRn (shFcRn); assay: SPR 8500, hFcRn pH 6 (Table 11B)
[6] = target: T3, soluble human FcRn (shFcRn); assay: SPR 8500, hFcRn pH 7.4 (Table 11C)
[7] = target: T3, soluble human FcRn (shFcRn); assay: SPR 8500, IgG, pH 6
soluble rat FcRn [8] = target: T1, soluble rat FcRn; assay: SPR 8500, IgG, pH 6
[9] = target: T3, soluble human FcRn (shFcRn); assay: Biacore, hFcRn immobilized, IgG flowed, pH 6
[10] = target: T3, soluble human FcRn (shFcRn); assay: Biacore, IgG immobilized, hFcRn flowed, pH 6
[11] = target: T2, rat FcRn/rat β2M expressed on cells; assay: FACS blocking of IgG-Fc, IgG, pH 6
[12] = target: T3, soluble human FcRn (shFcRn); assay: SPR 8500, IgG, pH 7.5
soluble rat FcRn [13] = target: T1, soluble rat FcRn; assay: SPR 8500, IgG, pH 7.5
soluble rat FcRn [14] = target: T1, soluble rat FcRn; assay: SPR 8500, rat FcRn pH 7.4 (Table 12E)
[15] = target: T4, human FcRn/human β2M expressed by cells …; assay: FACS (blocking), IgG, hFcRn cells, pH 6
soluble rat FcRn [16] = target: T1, soluble rat FcRn; assay: SPR 8500, rat FcRn pH 6 (Table 12D)
[17] = target: T3, soluble human FcRn (shFcRn); assay: Biacore, IgG immobilized, hFcRn flowed, pH 7.4
[18] = target: T3, soluble human FcRn (shFcRn); assay: Biacore, pH 7.4
[19] = target: T3, soluble human FcRn (shFcRn); assay: Biacore, IgG immobilized, hFcRn flowed, pH 7.4; remark: listed apart in the source
[20] = target: T3, soluble human FcRn (shFcRn); assay: Biacore, hFcRn immobilized, IgG flowed, pH 7.4

Binder	Kd [1] [nM]	koff [1] [s⁻¹]	kon [1] [M⁻¹ s⁻¹]	Kd [2] [nM]	koff [2] [s⁻¹]	kon [2] [M⁻¹ s⁻¹]	IC50 [3] [nM]	Kd [9] [nM]	koff [9] [s⁻¹]	kon [9] [M⁻¹ s⁻¹]	Kd [10] [nM]	koff [10] [s⁻¹]	kon [10] [M⁻¹ s⁻¹]	IC50 [15] [nM]	Kd [17] [nM]	koff [17] [s⁻¹]	kon [17] [M⁻¹ s⁻¹]	Kd [20] [nM]	koff [20] [s⁻¹]	kon [20] [M⁻¹ s⁻¹]	also measured
3B3 mouse anti-human FcRn IgG (antibody) chain 1: VKLQESGPELVKPGASVKISCKASGYAFSRSWMNWVKQRPGQGLEWIGRIHPGDGDTNYNGKFKGKATLTVAKSSSTAYMQLSSLTSVDSAVYFCANEGSPYFDYWGQGTTLTVSS chain 2: DIQLTQSPTTVAASPGEKITITCSASSSISSNYLHWYQQKPGFSPKLLIYRTSNLASGVPARFSGSGSGTSYSLTIGTMEAEDVATYYCQQGSNIPLTFGAGTKLELKRADAAPTVSIFPPSSEQLTSGGASVVCFLNNFYPKDINVKWKIDGSERQNGVLNSWTDQDSKDSTYSMSSTLTLTKDEYERHNSYTCEATHKTSTSPIVKSFNKNE	0.675	0.0023	3.41e+06	0.409	0.00094	2.3e+06	9.7	–	–	–	–	–	–	–	–	–	–	–	–	–	Kd (soluble rat FcRn [4]): 1.5 nM; koff (soluble rat FcRn [4]): 0.00104 s⁻¹; kon (soluble rat FcRn [4]): 683000 M⁻¹ s⁻¹; Kd [5]: 0.34 nM; koff [5]: 0.00131 s⁻¹; kon [5]: 3.82e+06 M⁻¹ s⁻¹; Kd [6]: 0.593 nM; koff [6]: 0.00176 s⁻¹; kon [6]: 2.97e+06 M⁻¹ s⁻¹
532A-M0090-F11 IgG (antibody) chain 1: not shown chain 2: QSVLTQPASVSGSPGQSITISCTGTGSDVGSYNLVSWYQKYPGKAPKLIIYGDSQRPSGLSSRFSGSKSGNSASLTISGLQAEDEADYYCCSYAGSGIYVFGSGTKVTVLSQPKANPTVTLFPPSSEELQANKATLVCLISDFYPGAVTVAWKADGSPVKAGVETTKPSKQSNNKYAASSYLSLTPEQWKSHRSYSCQVTHEGSTVEKTVAPAECS	10.8	0.00173	159000	2.44	0.00248	1.02e+06	2.6	0.118	0.000252	2.13e+06	10.3	0.00312	303000	0.43	18.6	0.00299	161000	0.772	0.000702	909000	Kd [7]: 2.44 nM; Kd (soluble rat FcRn [8]): 9.8 nM; IC50 [11]: 4.9 nM; Kd [12]: 10.8 nM; Kd (soluble rat FcRn [13]): 9.14 nM; Kd (soluble rat FcRn [14]): 9.14 nM; koff (soluble rat FcRn [14]): 0.00114 s⁻¹; kon (soluble rat FcRn [14]): 125000 M⁻¹ s⁻¹; Kd (soluble rat FcRn [16]): 9.8 nM; koff (soluble rat FcRn [16]): 0.00117 s⁻¹; kon (soluble rat FcRn [16]): 119000 M⁻¹ s⁻¹; K off Fold improvement over DX2500 [18]: 7 fold; K off Fold improvement over M90-F11 [18]: 1 fold; KD Fold improvement over DX2500 [18]: 5 fold; KD Fold improvement over M90-F11 [18]: 1 fold; Kd [19]: 20.5 nM; koff [19]: 0.00373 s⁻¹; kon [19]: 181000 M⁻¹ s⁻¹
532A-M0090-F11 (germlined LC changes) IgG (antibody) chain 1: not shown chain 2: QSALTQPASVSGSPGQSITISCTGTGSDVGSYNLVSWYQQHPGKAPKLMIYGDSQRPSGVSNRFSGSKSGNTASLTISGLQAEDEADYYCCSYAGSGIYVFGTGTKVTVLGQPKANPTVTLFPPSSEELQANKATLVCLISDFYPGAVTVAWKADGSPVKAGVETTKPSKQSNNKYAASSYLSLTPEQWKSHRSYSCQVTHEGSTVEKTVAPTECS	–	–	–	–	–	–	–	0.172	0.000764	4.45e+06	29.9	0.0172	574000	0.38	–	–	–	0.779	0.000776	996000	Kd [19]: 35.2 nM; koff [19]: 0.0152 s⁻¹; kon [19]: 433000 M⁻¹ s⁻¹
DX-2500 (germlined LC & allotype HC changes) (antibody) chain 1: not shown chain 2: QSALTQPASVSGSPGQSITISCTGTGSDVGSYNLVSWYQQHPGKAPKLMIYGDSQRPSGVSNRFSGSKSGNTASLTISGLQAEDEADYYCCSYAGSGIYVFGTGTKVTVLGQPKANPTVTLFPPSSEELQANKATLVCLISDFYPGAVTVAWKADGSPVKAGVETTKPSKQSNNKYAASSYLSLTPEQWKSHRSYSCQVTHEGSTVEKTVAPTECS	–	–	–	–	–	–	–	0.16	0.000336	2.11e+06	27.6	0.0177	642000	0.65	87.9	0.0197	224000	0.268	0.000338	1.26e+06	K off Fold improvement over DX2500 [18]: 1 fold; K off Fold improvement over M90-F11 [18]: 0.15 fold; KD Fold improvement over DX2500 [18]: 1 fold; KD Fold improvement over M90-F11 [18]: 0.21 fold
